Patent US20230348630A1 (BEIJING MABWORKS BIOTECH, published 2023)
Residue numbers refer to the chain shown, from its start. Names may count otherwise.

T1: human BCMA on HEK293A/human BCMA cells (human, UniProt Q02223 1-184)
T1 sequence: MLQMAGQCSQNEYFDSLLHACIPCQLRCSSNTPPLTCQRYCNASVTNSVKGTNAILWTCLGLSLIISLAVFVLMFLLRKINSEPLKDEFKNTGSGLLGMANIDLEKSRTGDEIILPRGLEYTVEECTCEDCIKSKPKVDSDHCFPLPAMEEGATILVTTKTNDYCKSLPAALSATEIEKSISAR

T2: BCMA-his protein (Cat #: BCA-H522y, ACRO) (human, UniProt Q02223 1-54)
T2 construct: Bought recombinant protein; the construct is most likely only a soluble part of it; also called BCMA protein; human BCMA
T2 sequence: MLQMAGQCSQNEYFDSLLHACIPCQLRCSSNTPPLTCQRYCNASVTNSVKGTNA

T3: mouse BCMA on HEK293A/mouse BCMA cells (mouse, UniProt O88472 1-185)
T3 sequence: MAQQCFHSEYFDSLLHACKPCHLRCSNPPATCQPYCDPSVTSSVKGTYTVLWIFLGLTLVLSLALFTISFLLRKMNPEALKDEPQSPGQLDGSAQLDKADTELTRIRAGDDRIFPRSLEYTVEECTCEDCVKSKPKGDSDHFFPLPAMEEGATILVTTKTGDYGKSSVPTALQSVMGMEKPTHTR

B1: anti-CD3/BCMA bispecific antibody MBS305-H1-KIH (bispecific antibody, human IgG1, kappa, L234A L235A, N297A)
heavy 1: QVQLVQSGAEVKKPGASVKVSCKASGYTFTNHIIHWVRQAPGQGLEWMGYINPYPGYHGYNDKFSGRATMTSDTSTSTVYMELSSLRSEDTAVYYCARDGYYRDQDVLDYWGQGTLVTVSSASTKGPSVFPLAPSSKSTSGGTAALGCLVKDYFPEPVTVSWNSGALTSGVHTFPAVLQSSGLYSLSSVVTVPSSSLGTQTYICNVNHKPSNTKVDKKVEPKSCDKTHTCPPCPAPEAAGGPSVFLFPPKPKDTLMISRTPEVTCVVVDVSHEDPEVKFNWYVDGVEVHNAKTKPREEQYASTYRVVSVLTVLHQDWLNGKEYKCKVSNKALPAPIEKTISKAKGQPREPQVYTLPPSREEMTKNQVSLSCAVKGFYPSDIAVEWESNGQPENNYKTTPPVLDSDGSFFLVSKLTVDKSRWQQGNVFSCSVMHEALHNHYTQKSLSLSPGK
light 1: not shown
heavy 2: QVQLVQSGAEVKKPGASVKVSCKASGYTFTNHIIHWVRQAPGQGLEWMGYINPYPGYHGYNDKFSGRATMTSDTSTSTVYMELSSLRSEDTAVYYCARDGYYRDQDVLDYWGQGTLVTVSSGGGGSGGGGSGGGGSGGGGSDIQMTQSPSSLSASVGDRVTITCKASQDISQYLNWYQQKPGKAPKLLIYYTSGLHPGVPSRFSGSGSGTDFTFTISSLEPEDEATYYCQQGYALPWTFGQGTKLTAKRGGGGSGGGGSGGGGSEVQLVESGGGLVQPGRSLRLSCAASGFTFSDYTMHWVRQAPGKGLEWVSGISWNTGTIGYADSVKGRFTISRDNAKKSLYLQMNSLRAEDTALYYCAKDNSGYGHYYFGMDVWGQGTTVTVASASTKGPSVFPLAPSSKSTSGGTAALGCLVKDYFPEPVTVSWNSGALTSGVHTFPAVLQSSGLYSLSSVVTVPSSSLGTQTYICNVNHKPSNTKVDKKVEPKSCDKTHTCPPCPAPEAAGGPSVFLFPPKPKDTLMISRTPEVTCVVVDVSHEDPEVKFNWYVDGVEVHNAKTKPREEQYASTYRVVSVLTVLHQDWLNGKEYKCKVSNKALPAPIEKTISKAKGQPREPQVYTLPPSREEMTKNQVSLWCLVKGFYPSDIAVEWESNGQPENNYKTTPPVLDSDGSFFLYSKLTVDKSRWQQGNVFSCSVMHEALHNHYTQKSLSLSPGK
light 2: not shown
B2: anti-CD3/BCMA bispecific antibody MBS305-H2-KIH (bispecific antibody, human IgG1, kappa, L234A L235A, N297A)
heavy 1: B1 heavy 1
light 1: not shown
heavy 2: B1 heavy 2 with S294D, Y296F, T297A, S316T, T319S, T321S, I322V, N364R, F372Y
light 2: not shown
B3: anti-CD3/BCMA bispecific antibody MBS305-M-KIH (bispecific antibody, human IgG1, kappa, L234A L235A, N297A)
heavy 1: B1 heavy 1
light 1: not shown
heavy 2: B1 heavy 2 with S294D, D295S, T297S, T319S, T321S, I322L, N364R, F372Y
light 2: not shown
B4: anti-CD3D&E antibody D1E9, full-length human IgG1 (L234A/L235A/N297A)/kappa (antibody, V domains shown)
VH: EVQLVESGGGLVQPGRSLRLSCAASGFTFDDFAMHWVRQAPGKGLEWVSGITWNSGSVGYADSVKGRFTISRDNAKKSLYLQMNSLRAEDTALYYCAKDRSGYGHYYYGMDVWGQGTTVTVAS
VL: EIVMTQSPATLSVSPGERATLSCRASTSVSHNVAWYQQKPGQAPRLLIYGASTKVTGIPARFSGSGSGTEFTLTISSLQSEDFAVYYCQHYINWPLTFGGGTKVEIKR
B5: anti-CD3D&E antibody 7-1A12, full-length human IgG1 (L234A/L235A/N297A)/kappa (antibody, V domains shown)
VH: B4 VH with D30S, F32Y, A33T, T52S, S55T, S57T, V58I, R100N, Y108F
VL: B4 VL with T27Q, H31R, K54R, V55Q, H90S, T97Q
B6: anti-CD3D&E antibody D8E5, full-length human IgG1 (L234A/L235A/N297A)/kappa (antibody, V domains shown)
VH: B4 VH with D31S, F32Y, A33S, T52S, V58L
VL: B4 VL with T27R, H31L, V55Y, H90Q
B7: anti-CD3D&E antibody D12A4, full-length human IgG1 (L234A/L235A/N297A)/kappa (antibody, V domains shown)
VH: B4 VH with D30G, F32Y, T52S, S55H, S57H, V58I, R100N
VL: B4 VL with T27R, H31R, V33L, V55P, I92T, T97R

molecular target: T4, CD3D&E protein (Cat #: CT038-H2508H, Sino Biological) (human, UniProt P04234 22-105; P07766 23-126); assay: SPR (BIAcore 8K), protocol of Example 10
T4 construct: Bought complex of the delta and epsilon chains; also called CD3D&E complex; human CD3D&E complex
T4 sequence (P04234 22-105, form in doubt, chain 1 of 2): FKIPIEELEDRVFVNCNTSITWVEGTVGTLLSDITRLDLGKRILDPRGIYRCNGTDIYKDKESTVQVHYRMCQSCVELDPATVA
T4 sequence (P07766 23-126, form in doubt, chain 2 of 2): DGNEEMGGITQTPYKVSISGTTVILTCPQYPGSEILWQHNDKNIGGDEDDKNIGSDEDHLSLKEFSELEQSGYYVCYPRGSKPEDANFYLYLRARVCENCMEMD
Method: (§1) Following the protocols in Example 5 and Example 10, the bispecific antibodies of the disclosure were tested for their binding affinity to CD3D&E and human BCMA.

Binder	Kd
B1	8.09 nM
B2	256 nM
B3	37.9 nM

molecular target: T5, CD3 on Jurkat cells (UniProt P04234 22-171; P07766 23-207); assay: flow cytometry on Jurkat cells
T5 construct: whole, on cells
T5 sequence (P04234 22-171, chain 1 of 2): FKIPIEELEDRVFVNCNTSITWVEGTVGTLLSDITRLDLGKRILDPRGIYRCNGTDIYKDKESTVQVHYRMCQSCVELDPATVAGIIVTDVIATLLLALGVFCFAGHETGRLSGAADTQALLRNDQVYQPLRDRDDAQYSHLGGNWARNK
T5 sequence (P07766 23-207, chain 2 of 2): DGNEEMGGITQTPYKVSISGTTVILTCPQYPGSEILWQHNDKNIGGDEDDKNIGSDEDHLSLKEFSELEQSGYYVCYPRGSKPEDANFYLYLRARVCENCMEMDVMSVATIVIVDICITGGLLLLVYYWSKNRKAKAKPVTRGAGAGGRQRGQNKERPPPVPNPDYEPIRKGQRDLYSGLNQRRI
Method: (§2) Jurkat cells were collected, centrifuged at 300 g for 5 min, and suspended in PBS. After another centrifugation, the cells were suspended in 2% FBS-PBS at the cell density of 3×10⁶/ml, and […] were plated onto a U-bottom plate. The plate was added with 50 μl serially diluted anti-CD3 antibodies of the disclosure in 2% FBS-PBS (4-fold dilution, starting at 20 μg/ml), and incubated at room temperature for 1 h. The plate was washed with 2% FBS-PBS for three times, added with 50 μl PE-labeled goat-anti-human IgG (H+L) (1: 500), and incubated at room temperature for 45 min. The plate was washed with 2% FBS-PBS again for three times, and added with 150 μl 2% FBS-PBS to suspend the cells. The plate was measured for cell fluorescence using a cytometry, and the data was processed with FlowJo and analyzed with GraphPad.

Binder	EC50
B4	0.0837 µg/mL
B5	0.119 µg/mL
B6	0.0411 µg/mL
B7	0.11 µg/mL

molecular target: T1, human BCMA on HEK293A/human BCMA cells; assay: flow cytometry on HEK293A/human BCMA cells
Method: (§3) The anti-BCMA antibody's binding capability to cell surface BCMAs was tested by FACS. Briefly, HEK293A/human BCMA cells, HEK293A/monkey BCMA cells and HEK293A/mouse BCMA cells, as generated in Example 1, were collected, digested with trypsin, and subjected to centrifugation at 300 g for 5 min. The cells were suspended in PBS, and subjected to centrifugation again. The cells were re-suspended in PBS with 2% FBS at the cell density at 4×10⁶/ml, and 50 μl cells were seeded onto a U-bottom plate. […] The plate was washed with 2% FBS-PBS for three times, added with 50 μl PE-labeled goat-anti-human IgG (H+L) (1: 500), and incubated at room temperature for 45 min. The plate was washed with 2% FBS-PBS again for three times, and added with 150 μl 2% FBS-PBS to suspend the cells. The plate was measured for cell fluorescence using a cytometry, and the data was processed with FlowJo and analyzed with GraphPad.
(§4) Following the protocol of Example 6, the bispecific antibodies of the disclosure were tested for their binding capability to the HEK293A/human BCMA cells, HEK293A/monkey BCMA cells, and HEK293A/mouse BCMA cells as generated in Example 1.

Binder	EC50
B1	0.221 µg/mL
B2	0.285 µg/mL
B3	0.199 µg/mL

molecular target: T4, CD3D&E protein (Cat #: CT038-H2508H, …); assay: SPR (BIAcore 8K), antibody captured by anti-human Fc, CD3D&E as analyte
Method: Briefly, the mouse anti-human Fc antibodies were coupled to a CM5 biosensor chip. The anti-CD3 antibodies of the disclosure in the HBS-EP buffer (Cat #: BR-1006-69, GE Life Sciences) at the concentration of 1 μg/ml was flowed through the chip, where about 100 RU of the antibodies were captured by the mouse anti-human Fc antibodies. Serially diluted CD3D&E molecules (Cat #: CT038-H2508H, Sino Biological) in the HBS-EP buffer (Cat #: BR-1006-69, GE Life Sciences) (2-fold dilution starting at 20 μg/ml) were respectively flowed through the chip. Chip regeneration was performed with 3 M MgCl₂.

Binder	Kd
B4	120 nM
B5	6.54 nM
B6	30 nM
B7	357 nM

molecular target: T4, CD3D&E protein (Cat #: CT038-H2508H, …); assay: ELISA, coated CD3D&E
Method: (§5) The purified bispecific antibodies were tested for their binding capability to recombinant human CD3 and human BCMA proteins by ELISA, following the protocols in Example 4 and Example 9.

Binder	EC50
B1	0.0468 µg/mL
B2	0.141 µg/mL
B3	0.089 µg/mL

molecular target: T4, CD3D&E protein (Cat #: CT038-H2508H, …); assay: ELISA, coated CD3D&E; remark: another data set of the same source

Binder	EC50
B4	0.0879 µg/mL
B5	0.00402 µg/mL
B6	0.00816 µg/mL
B7	0.0226 µg/mL

molecular target: T6, CD3E protein (Cat #: 10977-H08S, Sino Biological) (UniProt P07766 23-126); assay: SPR (BIAcore 8K), CD3E coupled to the chip, antibody as analyte
T6 construct: also called CD3ε
T6 sequence (P07766 23-126 limits assumed, stated change not applied): as the sequence (P07766 23-126, form in doubt, chain 2 of 2) above
Method: For the test regarding binding affinity to CD3E (Cat #: 10977-H08S, Sino Biological), the CD3E molecules were coupled to a CMS biosensor chip, where about 200 RU of the molecules bound to the chip. The anti-CD3 antibodies of the disclosure diluted with the HBS-EP buffer (Cat #: BR-1006-69, GE Life Sciences) at 120 μg/ml were respectively flowed through the chip. Chip regeneration was performed with pH1.5 Gly-HCl.

Binder	binding result
B4	no binding (tested: 120 µg/ml)
B7	no binding (tested: 120 µg/ml)

molecular target: monkey BCMA on HEK293A/monkey BCMA cells (monkey, UniProt Q02223 1-184 (human entry)); assay: flow cytometry on HEK293A/monkey BCMA cells
Sequence (Q02223 other isoform, or with tags, fused parts or gaps): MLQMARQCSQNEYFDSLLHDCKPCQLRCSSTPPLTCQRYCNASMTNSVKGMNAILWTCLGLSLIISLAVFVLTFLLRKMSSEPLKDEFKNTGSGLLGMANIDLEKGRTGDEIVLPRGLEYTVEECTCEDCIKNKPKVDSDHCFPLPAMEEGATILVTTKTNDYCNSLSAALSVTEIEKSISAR
Method: as §3, §4

Binder	EC50
B1	0.337 µg/mL
B2	0.373 µg/mL
B3	0.23 µg/mL

molecular target: T5, CD3 on Jurkat cells; assay: flow cytometry on Jurkat cells; remark: another data set of the same source
Method: as §2
Following the protocol of Example 11, the bispecific antibodies of the disclosure were tested for their binding capability to Jurkat cells.

Binder	EC50	EC50 (read off the curve)
B1	0.00173 µg/mL	~2 µg/mL
B2	0.00328 µg/mL	
B3	0.00106 µg/mL	~1 µg/mL

molecular target: T2, BCMA-his protein (Cat #: BCA-H522y, …); assay: ELISA, coated BCMA protein
Method: Briefly, an ELISA plate was coated with 100 μl 1 μg/ml BCMA protein (Cat #: BCA-H522y, ACRO) in PBS overnight at 4° C. Then, the plate was blocked with 250 μl PBST with 4% skimmed milk at room temperature for 1 h. […] The negative control well was added with PBST instead of the antibody. The plate was washed with PBST for three times, added with 100 μl HRP conjugated goat anti-human IgG (1:7000, Cat #: 31413, thermofisher), and incubated at room temperature for 1 h. The plate was washed again with PBST for four times, added with 100 μl freshly prepared TMB (Cat #: 555214, BD, USA), and left still for color development, which was terminated with 50 μl 10% H₂SO₄. The absorbance was read at 450 nm, and the data was processed and analyzed using GraphPad.
as §5

Binder	EC50
B1	0.0117 µg/mL
B2	0.0124 µg/mL
B3	0.0137 µg/mL

molecular target: T2, BCMA-his protein (Cat #: BCA-H522y, …); assay: SPR (BIAcore 8K), protocol of Example 5
Method: as §1

Binder	Kd
B1	0.168 nM
B2	0.206 nM
B3	0.105 nM

molecular target: T3, mouse BCMA on HEK293A/mouse BCMA cells; assay: flow cytometry on HEK293A/mouse BCMA cells [continued) E]
Method: as §3, §4

Binder	binding result
B1	no binding (tested: about 30000 ng/ml (LOG10 about 4.5))
B2	no binding (tested: about 30000 ng/ml (LOG10 about 4.5))
B3	no binding (tested: about 30000 ng/ml (LOG10 about 4.5))
